Where two headings read alike, the source gives them in different places.
T1: human CD100-Fc (human, UniProt Q92854 22-734, limits assumed)
T1 sequence: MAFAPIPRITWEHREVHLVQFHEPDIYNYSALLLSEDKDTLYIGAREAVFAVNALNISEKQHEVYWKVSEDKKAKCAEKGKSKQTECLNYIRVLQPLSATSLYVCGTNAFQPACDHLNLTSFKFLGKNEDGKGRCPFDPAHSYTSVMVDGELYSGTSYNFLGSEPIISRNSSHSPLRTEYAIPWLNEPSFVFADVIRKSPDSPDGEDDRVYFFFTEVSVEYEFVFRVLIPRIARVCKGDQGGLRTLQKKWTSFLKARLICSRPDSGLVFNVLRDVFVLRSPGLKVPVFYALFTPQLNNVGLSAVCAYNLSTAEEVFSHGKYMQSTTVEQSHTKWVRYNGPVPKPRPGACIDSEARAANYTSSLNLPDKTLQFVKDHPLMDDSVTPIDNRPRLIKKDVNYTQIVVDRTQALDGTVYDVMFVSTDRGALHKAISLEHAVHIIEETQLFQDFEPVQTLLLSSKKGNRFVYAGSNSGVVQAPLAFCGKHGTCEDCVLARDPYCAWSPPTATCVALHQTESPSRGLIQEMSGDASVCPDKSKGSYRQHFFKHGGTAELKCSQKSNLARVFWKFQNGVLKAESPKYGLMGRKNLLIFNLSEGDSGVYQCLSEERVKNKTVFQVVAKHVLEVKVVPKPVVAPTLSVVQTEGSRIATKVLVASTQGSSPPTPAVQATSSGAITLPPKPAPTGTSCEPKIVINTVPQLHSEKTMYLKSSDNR

T2: marmoset CD100 (marmoset, UniProt A0A8I3W811 22-734)
T2 construct: also called marmCD100; monkey CD100
T2 sequence: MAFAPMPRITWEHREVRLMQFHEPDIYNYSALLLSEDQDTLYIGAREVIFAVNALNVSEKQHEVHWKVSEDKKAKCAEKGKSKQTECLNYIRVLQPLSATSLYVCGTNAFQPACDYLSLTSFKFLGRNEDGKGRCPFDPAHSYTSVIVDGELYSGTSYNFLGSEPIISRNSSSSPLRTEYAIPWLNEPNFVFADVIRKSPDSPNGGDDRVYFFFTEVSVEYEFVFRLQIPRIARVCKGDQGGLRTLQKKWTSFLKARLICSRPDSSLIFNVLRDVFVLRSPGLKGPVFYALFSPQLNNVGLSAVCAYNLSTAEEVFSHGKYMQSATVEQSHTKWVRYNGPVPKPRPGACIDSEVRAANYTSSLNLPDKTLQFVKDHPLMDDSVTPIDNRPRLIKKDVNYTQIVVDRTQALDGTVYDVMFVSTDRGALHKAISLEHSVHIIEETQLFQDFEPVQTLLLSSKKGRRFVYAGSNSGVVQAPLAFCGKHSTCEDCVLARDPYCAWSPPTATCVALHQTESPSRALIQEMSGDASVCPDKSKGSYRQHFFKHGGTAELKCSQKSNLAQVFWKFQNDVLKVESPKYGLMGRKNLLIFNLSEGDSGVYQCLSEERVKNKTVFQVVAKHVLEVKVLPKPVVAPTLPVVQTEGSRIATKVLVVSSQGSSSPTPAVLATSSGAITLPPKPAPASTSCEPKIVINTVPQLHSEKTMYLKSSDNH

T3: human CD100 (human, UniProt Q92854 22-734, limits assumed)
T3 construct: also called huCD100; SEMA4D
T3 sequence: T1 sequence

T4: mouse CD100 (mouse, UniProt O09126 24-733, limits assumed)
T4 construct: also called murine CD100; muCD100
T4 sequence: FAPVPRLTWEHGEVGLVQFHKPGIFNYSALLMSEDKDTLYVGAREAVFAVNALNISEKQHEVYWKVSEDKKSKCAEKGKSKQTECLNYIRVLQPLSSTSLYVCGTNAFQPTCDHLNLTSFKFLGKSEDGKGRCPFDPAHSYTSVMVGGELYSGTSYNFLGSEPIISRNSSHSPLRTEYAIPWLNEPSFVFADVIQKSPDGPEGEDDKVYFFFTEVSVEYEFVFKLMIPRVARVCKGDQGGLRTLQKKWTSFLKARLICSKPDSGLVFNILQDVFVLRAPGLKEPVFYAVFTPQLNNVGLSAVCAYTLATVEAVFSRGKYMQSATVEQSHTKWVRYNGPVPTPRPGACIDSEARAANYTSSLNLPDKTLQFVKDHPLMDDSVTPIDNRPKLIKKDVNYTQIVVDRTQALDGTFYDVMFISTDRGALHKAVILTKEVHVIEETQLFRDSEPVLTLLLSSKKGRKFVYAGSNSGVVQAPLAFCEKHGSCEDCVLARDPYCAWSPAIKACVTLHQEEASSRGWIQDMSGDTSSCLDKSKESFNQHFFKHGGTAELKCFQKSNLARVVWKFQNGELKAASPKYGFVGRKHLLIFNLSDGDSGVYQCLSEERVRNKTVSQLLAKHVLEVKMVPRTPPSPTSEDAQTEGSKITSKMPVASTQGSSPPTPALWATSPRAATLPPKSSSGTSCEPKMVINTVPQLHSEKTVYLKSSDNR

B1: MAb 2503 (antibody, V domains shown)
VH: QVQLVQSGAEVKKPGSSVKVSCKASGYSFSDYYMHWVRQAPGQGLEWMGQINPTTGGASYNQKFKGKATITVDKSTSTAYMELSSLRSEDTAVYYCARYYYGRHFDVWGQGTTVTVSS
VL: DIVMTQSPDSLAVSLGERATINCKASQSVDYDGDSYMNWYQQKPGQPPKLLIYAASNLESGVPDRFSGSGSGTDFTLTISSLQAEDVAVYYCQQSNEDPYTFGQGTKLEIK
notes: also called humanized MAb 67; H2160/L553
B2: MAb 76 (antibody, IgG2b, V domains shown)
VH: QVQLQQSGAELAKPGASVKMSCKASGYTFTRYWMHWVKQRPGQGLEWIGYINPSTGYSDYNQKFKDKATLTADKSSSTAYMQLSSLTSEDSAVYYCARDPYGWTMDSWGQGTLVTVSS
VL: DIQMTQSPSSLSASLGDTITITCHASQNINVWLSWYQQKPGNIPKLLIYKASNLHTGVPSRFSGSGSGTGFTLTISSLQPEDIATYYCQQGQSYPYTFGGGTKLEIK
notes: also called clone 76-1; 76-1
B3: MAb 67 (antibody, IgG1, V domains shown)
VH: QVQLQQSGPELVKPGASVKISCKASGYSFSDYYMHWVKQSPENSLEWIGQINPTTGGASYNQKFKGKATLTVDKSSSTAYMQLKSLTSEESAVYYCTRYYYGRHFDVWGQGTTVTVSS
VL: DIVMTQSPASLAVSLGQRATISCKASQSVDYDGDSYMNWYQQKPGQPPKLLIYAASNLESGIPARFSGSGSGTDFTLNIHPVEEEDAATYYCQQSNEDPYTFGGGTKLEIK
notes: also called mouse MAb 67; murine MAb 67

Columns and labels:
[1] = target: T1, human CD100-Fc; test: competition ELISA on plate-coated human CD100-Fc; unlabelled antibody titrated first, competitor biotinylated MAb 67 detected with streptavidin-HRP
Description: For the ELISA protocol, an ELISA plate was coated with CD100-Fc. […] The antibodies were allowed to bind to CD100 and unbound antibody was wash away. Biotinylated MAb 67 was added. Biotinylated MAb 67 bound to CD100 was detected using Streptavidin-HRP.

[2] = target: T2, marmoset CD100; test: BIACORE surface plasmon resonance
Description: (§1) Binding affinities of anti-CD100 MAbs were determined using BIACORE® surface plasmon resonance technology.

[3] = target: T3, human CD100; test: BIACORE surface plasmon resonance
Description: as §1

[4] = target: T4, mouse CD100; test: BIACORE surface plasmon resonance
Description: as §1

[5] = target: T3, human CD100; test: BIACORE surface plasmon resonance; remark: listed apart in the source
[6] = target: T4, mouse CD100; test: BIACORE surface plasmon resonance; remark: listed apart in the source

Binder | IC50 (read off the curve) [1] [nM] | Kd [2] [nM] | Kd [3] [nM] | Kd [4] [nM] | Kd [5] [nM] | Kd [6] [nM]
B1 | ~0.2 | 2.4 | 5.4 | 1.5 | – | –
B2 | – | – | – | – | 0.12 | 0.33
B3 | – | 2.7 | – | – | – | –

From patent publication US20170306017A1 (VACCINEX, published 2017)
